This is an account of results in patent US20020081719.

For one data set, the target named is PPARα/RXR heterodimer (UniProt Q07869+P19793). The data set is described as follows: EMSA. Particulars: cooperativity ratio; 0.5 mM ZnCl2, 4 C.
A further data set addresses PPARγ/RXR heterodimer (UniProt P37231+P19793). The data set can be described thus: EMSA. Particulars: 0.5 mM ZnCl2, 4 C. (In general: Mobility shift assays separate free from complexed probe on a gel.)
Setting [1] is: cooperativity ratio, dimer and tetramer complexes.

Chain of PPARα/RXR heterodimer (Q07869 whole entry, chain 1 of 2): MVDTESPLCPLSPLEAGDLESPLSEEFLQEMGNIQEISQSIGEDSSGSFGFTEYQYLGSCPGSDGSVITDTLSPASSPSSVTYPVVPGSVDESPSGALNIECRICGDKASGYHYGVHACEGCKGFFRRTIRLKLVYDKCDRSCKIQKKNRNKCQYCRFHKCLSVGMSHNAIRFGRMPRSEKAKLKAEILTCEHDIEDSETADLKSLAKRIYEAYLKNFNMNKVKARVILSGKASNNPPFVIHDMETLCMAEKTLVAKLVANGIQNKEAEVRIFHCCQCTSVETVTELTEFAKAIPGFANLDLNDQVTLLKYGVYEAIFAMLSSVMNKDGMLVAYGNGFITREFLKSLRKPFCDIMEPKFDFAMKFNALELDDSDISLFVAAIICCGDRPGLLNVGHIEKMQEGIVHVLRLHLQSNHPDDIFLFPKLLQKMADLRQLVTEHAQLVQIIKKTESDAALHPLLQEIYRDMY
Chain of PPARα/RXR heterodimer (P19793 whole entry, chain 2 of 2): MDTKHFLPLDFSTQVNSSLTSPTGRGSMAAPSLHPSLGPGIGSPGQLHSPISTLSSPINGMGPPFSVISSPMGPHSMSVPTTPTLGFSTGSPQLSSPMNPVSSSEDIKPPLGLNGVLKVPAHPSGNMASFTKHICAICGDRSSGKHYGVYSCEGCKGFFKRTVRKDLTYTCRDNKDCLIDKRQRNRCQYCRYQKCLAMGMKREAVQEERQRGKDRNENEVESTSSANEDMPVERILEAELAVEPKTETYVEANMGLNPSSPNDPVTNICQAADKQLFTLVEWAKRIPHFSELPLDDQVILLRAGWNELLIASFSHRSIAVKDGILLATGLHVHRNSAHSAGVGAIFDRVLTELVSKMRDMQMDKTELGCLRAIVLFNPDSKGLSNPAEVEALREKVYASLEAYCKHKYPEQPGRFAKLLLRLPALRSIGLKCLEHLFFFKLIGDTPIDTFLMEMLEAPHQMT
Chain of PPARγ/RXR heterodimer (P37231 whole entry, chain 1 of 2): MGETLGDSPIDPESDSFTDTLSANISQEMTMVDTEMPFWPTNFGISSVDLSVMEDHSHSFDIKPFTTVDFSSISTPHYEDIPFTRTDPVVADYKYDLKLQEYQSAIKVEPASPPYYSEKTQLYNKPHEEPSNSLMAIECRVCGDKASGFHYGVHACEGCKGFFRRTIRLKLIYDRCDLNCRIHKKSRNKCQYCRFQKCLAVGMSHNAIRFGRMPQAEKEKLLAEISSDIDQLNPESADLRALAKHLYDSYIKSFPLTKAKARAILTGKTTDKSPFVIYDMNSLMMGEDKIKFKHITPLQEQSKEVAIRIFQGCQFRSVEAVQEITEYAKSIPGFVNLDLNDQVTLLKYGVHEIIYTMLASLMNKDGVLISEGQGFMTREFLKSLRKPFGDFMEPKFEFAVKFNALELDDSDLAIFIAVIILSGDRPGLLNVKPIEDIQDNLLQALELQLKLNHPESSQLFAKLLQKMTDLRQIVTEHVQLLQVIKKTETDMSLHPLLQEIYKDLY
Chain of PPARγ/RXR heterodimer (P19793 whole entry, chain 2 of 2): as the sequence (P19793 whole entry, chain 2 of 2) above

For the sequence “CAAAACTAGGTCAAAGGTCAAAACTAGGTCAAAGGTCA (double strand) [(DR1)2 17]”, in the data set with PPARα/RXR heterodimer, the binding signal amounted to 7 KdII/KdIV. In addition, the cooperativity ratio (KdII/KdIV) with PPARγ/RXR heterodimer (setting [1]) came to 9 KdII/KdIV.

Turning to “CAAAACTAGGTCAAAGGTCATGTCTTTAGGCCCAAAACTAGGTCAAAGGTCA (double strand) [(DR1)2 31]”, the binding signal in the data set with PPARα/RXR heterodimer was 11.6 KdII/KdIV. Moreover, in the data set with PPARγ/RXR heterodimer (setting [1]), the cooperativity ratio (KdII/KdIV) was 12.6 KdII/KdIV.

With “CAAAACTAGGTCAAAGGTCATCAAAACTAGGTCAAAGGTCA (double strand) [(DR1)2 21]”, the binding signal with PPARα/RXR heterodimer turned out to be 11.2 KdII/KdIV. Further, the cooperativity ratio (KdII/KdIV) with PPARγ/RXR heterodimer (cooperativity ratio 34 +/- 11, 80% tetrameric) stood at 34 KdII/KdIV.
